Measured values taken from publication doi:10.1101/2021.06.17.448816 (bioRxiv, 2021).

B1: SARS-CoV-2 nsp1 middle domain (13-127), His6-MBP fusion (domain or fragment)
chain: HVQLSLPVLQVRDVLVRGFGDSVEEVLSEARQHLKDGTCGLVEVEKGVLPQLEQPYVFIKRSDARTAPHGHVMVELVAELEGIQYGRSGETLGVLVPHVGEIPVAYRKVLLRKNG
B2: SARS-CoV nsp1 (13-127), His6-MBP tag cleaved (domain or fragment)
chain: HVQLSLPVLQVRDVLVRGFGDSVEEALSEAREHLKNGTCGLVELEKGVLPQLEQPYVFIKRSDALSTNHGHKVVELVAEMDGIQYGRSGITLGVLVPHVGETPIAYRNVLLRKNG
B3: SARS-CoV nsp1 middle domain (13-127), His6-MBP fusion (domain or fragment)
chain: B2 chain
B4: MBP-tagged SARS-CoV nsp1 (full-length, His6-MBP fusion) (natural protein)
chain: MESLVLGVNEKTHVQLSLPVLQVRDVLVRGFGDSVEEALSEAREHLKNGTCGLVELEKGVLPQLEQPYVFIKRSDALSTNHGHKVVELVAEMDGIQYGRSGITLGVLVPHVGETPIAYRNVLLRKNGNKGAGGHSYGIDLKSYDLGDELGTDPIEDYEQNWNTKHGSGALRELTRELNGG

How the values were obtained:
Settings in all cases: both partners purified
[1] = biological target: T1, Truncated human primosome (Pol α: 334-1462; B subunit: 149-598; PriS: 1-420; PriL: 1-509) (human, UniProt P09884 334-1462; Q14181 149-598; P49642 1-420; P49643 1-509); assay: pull-down
T1 construct: also called truncated primosome; Pol α - primase
T1 sequence (Q14181 149-598, chain 2 of 3): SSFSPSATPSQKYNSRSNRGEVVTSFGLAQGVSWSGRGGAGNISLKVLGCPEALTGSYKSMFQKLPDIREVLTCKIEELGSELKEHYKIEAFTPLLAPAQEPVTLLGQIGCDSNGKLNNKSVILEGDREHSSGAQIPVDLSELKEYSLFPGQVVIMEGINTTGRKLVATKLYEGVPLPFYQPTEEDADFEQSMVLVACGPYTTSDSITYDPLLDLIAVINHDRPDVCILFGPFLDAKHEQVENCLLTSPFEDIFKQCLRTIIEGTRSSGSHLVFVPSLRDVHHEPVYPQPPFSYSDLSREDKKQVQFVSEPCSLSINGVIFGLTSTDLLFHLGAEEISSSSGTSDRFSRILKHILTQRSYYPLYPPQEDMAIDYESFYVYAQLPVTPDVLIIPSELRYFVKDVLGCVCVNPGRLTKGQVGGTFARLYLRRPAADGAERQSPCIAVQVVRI
T1 sequence (P49642 whole entry, chain 3 of 3, the tested form may be a part): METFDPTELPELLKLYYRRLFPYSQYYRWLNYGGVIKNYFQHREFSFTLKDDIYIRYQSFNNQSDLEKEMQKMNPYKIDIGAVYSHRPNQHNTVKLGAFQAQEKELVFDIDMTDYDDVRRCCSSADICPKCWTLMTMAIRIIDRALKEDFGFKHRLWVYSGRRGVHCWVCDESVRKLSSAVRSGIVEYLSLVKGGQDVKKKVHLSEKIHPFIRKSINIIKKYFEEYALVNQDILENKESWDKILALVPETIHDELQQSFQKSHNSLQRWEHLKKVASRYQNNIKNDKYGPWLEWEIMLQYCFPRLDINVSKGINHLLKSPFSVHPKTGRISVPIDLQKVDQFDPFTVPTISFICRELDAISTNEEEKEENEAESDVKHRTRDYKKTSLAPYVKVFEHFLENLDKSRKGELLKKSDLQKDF
T1 sequence (P49643 whole entry, chain 4 of 3, the tested form may be a part): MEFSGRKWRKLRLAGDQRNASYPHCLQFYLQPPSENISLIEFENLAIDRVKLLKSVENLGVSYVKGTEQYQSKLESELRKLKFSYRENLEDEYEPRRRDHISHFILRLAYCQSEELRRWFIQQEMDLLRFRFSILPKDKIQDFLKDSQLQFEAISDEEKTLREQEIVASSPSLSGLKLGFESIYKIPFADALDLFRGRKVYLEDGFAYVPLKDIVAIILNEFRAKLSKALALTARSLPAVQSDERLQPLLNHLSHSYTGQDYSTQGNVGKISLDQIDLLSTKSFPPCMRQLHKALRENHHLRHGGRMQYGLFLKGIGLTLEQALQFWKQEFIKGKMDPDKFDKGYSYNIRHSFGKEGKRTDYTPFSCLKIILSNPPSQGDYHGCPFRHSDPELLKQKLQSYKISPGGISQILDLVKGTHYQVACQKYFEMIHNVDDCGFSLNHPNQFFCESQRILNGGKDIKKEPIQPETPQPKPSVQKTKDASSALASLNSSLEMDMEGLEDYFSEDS

[2] = biological target: T1, Truncated human primosome (Pol α: …); assay: […]) in 25 mM HEPES pH 7.2, 150 mM KCl, 1 mM DTT; […]
[3] = biological target: T2, Pol α catalytic subunit (334-1462), as in the truncated human primosome (human, UniProt P09884 334-1462); assay: as above
T2 construct: also called DNA polymerase α; catalytic subunit of Pol α
T2 sequence (looked up): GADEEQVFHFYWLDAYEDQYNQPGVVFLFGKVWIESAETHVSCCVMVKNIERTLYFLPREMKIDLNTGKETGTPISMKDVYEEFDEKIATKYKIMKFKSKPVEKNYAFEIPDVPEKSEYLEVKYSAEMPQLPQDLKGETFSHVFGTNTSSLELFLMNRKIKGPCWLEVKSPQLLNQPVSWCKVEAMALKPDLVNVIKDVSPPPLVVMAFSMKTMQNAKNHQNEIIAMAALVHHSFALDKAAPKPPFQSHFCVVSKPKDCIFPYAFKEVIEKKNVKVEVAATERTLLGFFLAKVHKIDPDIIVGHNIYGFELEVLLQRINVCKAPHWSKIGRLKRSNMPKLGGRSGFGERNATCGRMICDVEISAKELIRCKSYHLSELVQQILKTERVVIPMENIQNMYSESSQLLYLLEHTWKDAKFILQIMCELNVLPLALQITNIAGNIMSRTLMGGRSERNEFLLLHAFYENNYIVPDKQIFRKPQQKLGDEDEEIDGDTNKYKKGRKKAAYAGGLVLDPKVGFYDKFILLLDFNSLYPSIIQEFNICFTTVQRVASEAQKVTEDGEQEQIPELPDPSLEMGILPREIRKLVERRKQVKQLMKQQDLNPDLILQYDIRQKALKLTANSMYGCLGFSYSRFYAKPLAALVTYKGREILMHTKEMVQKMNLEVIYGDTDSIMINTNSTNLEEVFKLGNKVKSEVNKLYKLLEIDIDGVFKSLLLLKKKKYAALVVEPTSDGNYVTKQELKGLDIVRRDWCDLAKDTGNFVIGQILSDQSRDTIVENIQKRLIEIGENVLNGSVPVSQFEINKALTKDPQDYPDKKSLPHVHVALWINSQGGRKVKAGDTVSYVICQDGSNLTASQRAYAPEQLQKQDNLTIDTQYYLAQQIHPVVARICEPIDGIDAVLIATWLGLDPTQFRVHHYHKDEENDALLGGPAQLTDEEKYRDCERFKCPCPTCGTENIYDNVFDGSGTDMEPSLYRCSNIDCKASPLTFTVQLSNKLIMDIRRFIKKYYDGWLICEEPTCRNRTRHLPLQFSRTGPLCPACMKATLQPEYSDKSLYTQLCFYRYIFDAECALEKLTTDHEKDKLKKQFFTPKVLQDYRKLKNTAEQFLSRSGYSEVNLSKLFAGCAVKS

[4] = biological target: T3, Full-length human primosome (Pol α: 1-1462; B subunit: 1-598; PriS: 1-420; PriL: 1-509) (human, UniProt P09884 1-1462; Q14181 1-598; P49642 1-420; P49643 1-509); assay: pull-down
T3 construct: also called DNA polymerase α - primase complex; Pol α - primase
T3 sequence (Q14181 whole entry, chain 2 of 3): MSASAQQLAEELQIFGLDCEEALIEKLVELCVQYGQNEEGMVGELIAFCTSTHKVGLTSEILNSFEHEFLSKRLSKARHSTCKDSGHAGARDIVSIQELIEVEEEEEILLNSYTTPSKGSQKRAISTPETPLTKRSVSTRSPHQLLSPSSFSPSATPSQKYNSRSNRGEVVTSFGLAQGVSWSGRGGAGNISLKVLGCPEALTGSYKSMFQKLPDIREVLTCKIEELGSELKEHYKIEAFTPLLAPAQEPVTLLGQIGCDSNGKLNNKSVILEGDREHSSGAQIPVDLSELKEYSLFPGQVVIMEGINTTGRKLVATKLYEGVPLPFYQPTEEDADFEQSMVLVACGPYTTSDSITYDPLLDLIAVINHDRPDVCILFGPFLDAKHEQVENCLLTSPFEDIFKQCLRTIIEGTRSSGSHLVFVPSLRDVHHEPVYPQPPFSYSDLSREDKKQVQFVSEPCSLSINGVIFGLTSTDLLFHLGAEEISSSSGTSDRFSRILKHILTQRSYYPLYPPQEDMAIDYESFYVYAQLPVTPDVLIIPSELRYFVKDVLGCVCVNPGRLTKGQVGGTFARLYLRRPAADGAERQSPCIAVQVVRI
T3 sequence (P49642 whole entry, chain 3 of 3): as the sequence (P49642 whole entry, chain 3 of 3, the tested form may be a part) above
T3 sequence (P49643 whole entry, chain 4 of 3): as the sequence (P49643 whole entry, chain 4 of 3, the tested form may be a part) above

| Binder | binding result [1] | binding result [2] | binding result [3] | binding result [4] |
| --- | --- | --- | --- | --- |
| B1 | binds |  |  |  |
| B2 |  | binds | binds |  |
| B3 | binds |  |  |  |
| B4 | binds |  |  | binds |
